Experimental data: patent publication US20260242430A1, “NOVEL FUNGAL DERIVED COMPOUNDS” (Aalborg Universitet, priority 2023, published 2026)
Changes are numbered by the printed parent chain.

Tests used:
[1] = test system: Apiosporin from a lysate of Apiospora arundinis (Isolate AAU773); experiment: Octet measurement of sdAbs capturing Apiosporin from fungal lysate; assay type: binding
Description: The Aim was to establish that selected antibody fragments could capture their target antigen Apiosporin from a lysate of WT Apiospora arundinis (Isolate AAU773), whereas no antigen would be bound specifically to the antibody fragments when KO Apiospora arundinis were applied in the binding assay.
The sdAbs produced as in example 9 were applied to amine reactive biosensors from Sartorius for the Octet instrument. First the reagents were prepared according to the AR2G kit instructions. For a standard immobilization scouting assay 200 μL/well of water was added to column 1 of a 96-well plate. The 200 μL/well 1 M ethanolamine pH 8.5 were added to column 4. 200 μL/well assay running buffer into column 5. Here the provided Kinetics Buffer (dilute the 10× Kinetics Buffer 10-fold in PBS) was used. 200 μL/well of the sdAbs were added to column 6 at a concentration of 500 nM. The sdAbs were prepared to be immobilized. Protein was prepared in each of the 10 mM acetate buffers at pH 4, 5 and 6. A starting ligand concentration of at least 20 μg/mL is recommended. The ligand concentration may be decreased as low as 5 μg/mL if the immobilization time is extended; some performance loss is expected at lower ligand concentrations. Prepare 500 μL at each pH.
As Apiosporin is present in an unknown concentration in the crude extracts, it is not possible to estimate a Kd from the sensorgram. Also, it is not possible to fit the raw data to a nice binding curve when a ligand concentration is not known. However, in order to allow fitting a concentration of 100 nM and 10 nM (resulting in almost identical fitting curves) of Apiosporin were inserted. The same fitting settings were used for all (data correction aligning to the association step with baseline correction to dissociation, Savitzky-Golay filtering to smoothen the curves, 1:1 model graph fitting to association and dissociation separately). […] It thus establishes that there is a normal association/dissociation between Apiosporin and sdAbs for the WT, but no association/dissociation for the KO as expected. Thus, it is seen that the antibodies are specific against the compound produced from the NRPS.

[2] = test system: Apiosporin; experiment: Immunoprecipitation of Apiosporin from fungal extract by sdAbs with mass spec identification; assay type: binding, Apiospora arundinis; settings: Protein A SpinTrap
Description: 50 μl of the partial pure sdAbs prepared in example 9 and 150 μl fungal extract (resuspended in PBS with 500 mM NaCl and 0.2% Tween20) were incubated overnight at 4° C. The mixed sdAb and fungal extract were purified on a SpinTrap Protein A from Cytivia accoridng to manufactures instructions except that the elution was performed into 50% AcN 5% formic acid.
The same immune precipitations were analysed by HPLC-DAD-HRMS using a Hitachi Elite LaChrom HPLC system, equipped with a phenyl-hexyl 100 Å (150×4.6 mm Kinetex 5 μm, Phenomenex) column kept at 40° C. and coupled by a 5:95 flow splitter to a high-resolution mass spectrometer (compact qTOF, Bruker) with an electrospray source (Capilary: 4500 V; end plate offset 500 V; Dry gas 4.0 L/min, 200° C.) operated in positive mode. The injection volume was set to 30 μL and separated using a 1.2 mL/min gradient initiating at 10% solvent A (acetonitrile (HiPerSolv CHROMANORM, VWR) with 0.1% v/v formic acid (MS-grade 98%, Sigma-Aldrich)) in 90% solvent B (water (HiPerSolv CHROMANORM, VWR) with 0.1% v/v formic acid (MS-grade 98%, Sigma-Aldrich)), increasing linearly to 100% solvent A over 17 minutes and held for 6 minutes. After 0.5 minutes from sample injection, 2 μL calibrant (10 mM NaOH and 26 mM formic acid (MS-grade 98%, Sigma-Aldrich) in 1:1 water (HiPerSolv CHROMANORM, VWR): isopropanol) was injected directly to the mass analyser and used for internal spectra calibration. Mass spectrometric instrument control, data recording and data processing was performed using Compass DataAnalysis 4.2 SR2 (Bruker).

[3] = test system: Apiospora arundinis (Isolate AAU773); experiment: Immunofluorescent staining of Apiospora arundinis with sdAbs; assay type: cell-based; settings: primary sdAb 70 nM, ALFA tag secondary (Alexa 647)
Description: Apiospora arundinis (Isolate AAU773) were grown in liquid culture and spotted on glass cover slips where they were immobilized using tape. The fungi were fixed by addition of 3.7% paraformaldehyde for 10 min. Then blocking with 5% skim milk in PBS before staining with the primary sdAbs (70 nM) overnight, secondary antibody (ALFA sdAb-FluoTag-X2 from Synaptic Systems, the antibody was labelled with Alexa flour 647 and used at a dilution of 1:500 for 3 h, washing 3×5 min with PBS, then staining for 2 min with calcofluor white stain (calcofluor white 1 g/l, evans blue 0.5 g/l), then wash 1×5 min with PBS.

[4] = WT fungal extract, 1:1 model fit, Apiosporin concentration assumed 100 nM

B1: AP1: single domain antibody (sdAb) selected against Apiosporin, SEQ ID NO: 6 (protein)
VHH: EVQLLESGGGLVQPGGSLRLSCAASGFRDSDEDMGWVRQAPGKGLEWVSSIYSYNGSTYYADSVKGRFTISRDNSKNTLYLQMNSLRAEDTAVYYCASDRGGYNSFDYWGQGTLVTVSSAAA
Association/dissociation (binding to ligand) on Octet ([1]; KO fungal extract): absent in the KO
Association/dissociation (binding to ligand) on Octet [1, 4]: binding to a ligand present in the WT extracts
Immunoprecipitation of Apiosporin, identified by mass spec [2]: identification of Apiosporin after immunoprecipitation
Immunofluorescent staining of septa ([3]; KO fungi): No clearly staining in septa
Immunofluorescent staining of septa ([3]; WT fungi): Staining is clearly shown in septa between two hyphae

B2: AP3: single domain antibody (sdAb) selected against Apiosporin, SEQ ID NO: 16 (protein)
VHH: B1 VHH with Y52G, S53G, D99E, R100G, G101Y, G102Y, Y103T, N104S, S105A
Association/dissociation (binding to ligand) on Octet ([1]; KO fungal extract): absent in the KO
Association/dissociation (binding to ligand) on Octet [1, 4]: binding to a ligand present in the WT extracts

B3: AP4: single domain antibody (sdAb) selected against Apiosporin, SEQ ID NO: 21 (protein)
VHH: B1 VHH with Y52D, S53A, Y54E, N55D, R100S, G102D, Y103W, N104F
Association/dissociation (binding to ligand) on Octet ([1]; KO fungal extract): absent in the KO
Association/dissociation (binding to ligand) on Octet [1, 4]: binding to a ligand present in the WT extracts

B4: AP2: single domain antibody (sdAb) selected against Apiosporin, SEQ ID NO: 11 (protein)
VHH: EVQLLESGGGLVQPGGSLRLSCAASGFRDSDEDMGWVRQAPGKGLEWVSSIETPDGSTYYADSVKGRFTISRDNSKNTLYLQMNSLRAEDTAVYYCASQPVYSYHFDYWGQGTLVTVSSAAA
Association/dissociation (binding to ligand) on Octet ([1]; KO fungal extract): absent in the KO
Association/dissociation (binding to ligand) on Octet [1, 4]: binding to a ligand present in the WT extracts
Immunoprecipitation of Apiosporin, identified by mass spec [2]: identification of Apiosporin after immunoprecipitation

B5: AP7: single domain antibody (sdAb) selected against Apiosporin, SEQ ID NO: 31 (protein)
VHH: B4 VHH with T53G, D55S, Q99V, P100T, V101W, Y102W, S103T, Y104H, H105P
Immunoprecipitation of Apiosporin, identified by mass spec [2]: identification of Apiosporin after immunoprecipitation
